From paper PMC4856209 (Nature methods, 2016) come the findings set out here.

No end group written: not given here.

The chains are these.
B1: pentameric ligand-gated ion channel ELIC (natural protein)
chain: APADNAADARPVDVSVSIFINKIYGVNTLEQTYKVDGYIVAQWTGKPRKTPGDKPLIVENTQIERWINNGLWVPALEFINVVGSPDTGNKRLMLFPDGRVIYNARFLGSFSNDMDFRLFPFDRQQFVLELEPFSYNNQQLRFSDIQVYTENIDNEEIDEWWIRKASTHISDIRYDHLSSVQPNQNEFSRITVRIDAVRNPSYYLWSFILPLGLIIAASWSVFWLESFSERLQTSFTLMLTVVAYAFYTSNILPRLPYTTVIDQMIIAGYGSIFAAILLIIFAHHRQAMGVEDDLLIQRCRLAFPLGFLAIGCVLVIRGITL
B2: OBS1 peptide (peptide mimic of colicin OmpF Binding Sequence 1) (peptide)
peptide: SGGDGRGHNTGAHSTSG-NH2
B3: outer membrane porin OmpF (natural protein)
chain: AEIYNKDGNKVDLYGKAVGLHYFSKGNGENSYGGNGDMTYARLGFKGETQINSDLTGYGQWEYNFQGNNSEGADAQTGNKTRLAFAGLKYADVGSFDYGRNYGVVYDALGYTDMLPEFGGDTAYSDDFFVGRVGGVATYRNSNFFGLVDGLNFAVQYLGKNERDTARRSNGDGVGGSISYEYEGFGIVGAYGAADRTNLQEAQPLGNGKKAEQWATGLKYDANNIYLAANYGETRNATPITNKFTNTSGFANKTQDVLLVAQYQFDFGLRPSIAYTKSKAKDVEGIGDVDLVNYFEVGATYYFNKNMSTYVDYIINQIDSDNKLGVGSDDTVAVGIVYQF

Assay in all cases: native MS
The target of data set [1] is Vibrio sp. N418 semiSWEET (Vibrio sp. N418).
Data set [2] concerns the molecule itself.
For data set [3], the target named is B3.

Broadly, the stoichiometry N is the number of molecules, sites or subunits per partner or assembly. On to “Vibrio sp. N418 semiSWEET (natural protein)”, for which the stoichiometry N in data set [1] came to 2. Consider B1, for which the “stoichiometry N” value in data set [2] was determined as 5. The Kd is a measure of binding affinity in units of concentration. Low values mean higher affinity, high ones lower affinity. Turning to B2, in data set [3], the Kd is 690 nM and the “stoichiometry N” value came to 3. B3: the “stoichiometry N” value in data set [2] is 3.
